Results as given in IntAct's records for PubMed 35512704.

B1: Speckle-type POZ protein (Homo sapiens), O43791 (parent)
chain: MSRVPSPPPPAEMSSGPVAESWCYTQIKVVKFSYMWTINNFSFCREEMGEVIKSSTFSSGANDKLKWCLRVNPKGLDEESKDYLSLYLLLVSCPKSEVRAKFKFSILNAKGEETKAMESQRAYRFVQGKDWGFKKFIRRDFLLDEANGLLPDDKLTLFCEVSVVQDSVNISGQNTMNMVKVPECRLADELGGLWENSRFTDCCLCVAGQEFQAHKAILAARSPVFSAMFEHEMEESKKNRVEINDVEPEVFKEMMCFIYTGKAPNLDKMADDLLAAADKYALERLKVMCEDALCSNLSVENAAEILILADLHSADQLKTQAVDFINYHASDVLETSGWKSMVVSHPHLVAEAYRSLASAQCPFLGPPRKRLKQS

Variants of: B1
Details: with rxra_human RXRA

effect of a mutation on the interaction	Variant
with no effect	MSRVPSPPPPAEMSSGPVAESWCYTQIKVVKFSYMWTINNFSFCREEMGEVIKSSTFSSGANDKLKWCLRVNPKGLDEESKDYLSLYLLLVSCPKSEVRAKCKFSILNAKGEETKAMESQRAYRFVQGKDWGFKKFIRRDFLLDEANGLLPDDKLTLFCEVSVVQDSVNISGQNTMNMVKVPECRLADELGGLWENSRFTDCCLCVAGQEFQAHKAILAARSPVFSAMFEHEMEESKKNRVEINDVEPEVFKEMMCFIYTGKAPNLDKMADDLLAAADKYALERLKVMCEDALCSNLSVENAAEILILADLHSADQLKTQAVDFINYHASDVLETSGWKSMVVSHPHLVAEAYRSLASAQCPFLGPPRKRLKQS [F102C]

Variants of: B1
Details: with sdha_human SDHA

effect of a mutation on the interaction	Variant
with no effect	MSRVPSPPPPAEMSSGPVAESWCYTQIKVVKFSYMWTINNFSFCREEMGEVIKSSTFSSGANDKLKWCLRVNPKGLDEESKDYLSLYLLLVSCPKSEVRAKCKFSILNAKGEETKAMESQRAYRFVQGKDWGFKKFIRRDFLLDEANGLLPDDKLTLFCEVSVVQDSVNISGQNTMNMVKVPECRLADELGGLWENSRFTDCCLCVAGQEFQAHKAILAARSPVFSAMFEHEMEESKKNRVEINDVEPEVFKEMMCFIYTGKAPNLDKMADDLLAAADKYALERLKVMCEDALCSNLSVENAAEILILADLHSADQLKTQAVDFINYHASDVLETSGWKSMVVSHPHLVAEAYRSLASAQCPFLGPPRKRLKQS [F102C]

Variants of: B1
Details: with setbp_human SETBP1, Q9Y6X0

effect of a mutation on the interaction	Variant
with no effect	MSRVPSPPPPAEMSSGPVAESWCYTQIKVVKFSYMWTINNFSFCREEMGEVIKSSTFSSGANDKLKWCLRVNPKGLDEESKDYLSLYLLLVSCPKSEVRAKCKFSILNAKGEETKAMESQRAYRFVQGKDWGFKKFIRRDFLLDEANGLLPDDKLTLFCEVSVVQDSVNISGQNTMNMVKVPECRLADELGGLWENSRFTDCCLCVAGQEFQAHKAILAARSPVFSAMFEHEMEESKKNRVEINDVEPEVFKEMMCFIYTGKAPNLDKMADDLLAAADKYALERLKVMCEDALCSNLSVENAAEILILADLHSADQLKTQAVDFINYHASDVLETSGWKSMVVSHPHLVAEAYRSLASAQCPFLGPPRKRLKQS [F102C]

Variants of: B1
Details: with skp2_human SKP2, Q13309
Chain of skp2_human SKP2, Q13309 (Q13309 whole entry): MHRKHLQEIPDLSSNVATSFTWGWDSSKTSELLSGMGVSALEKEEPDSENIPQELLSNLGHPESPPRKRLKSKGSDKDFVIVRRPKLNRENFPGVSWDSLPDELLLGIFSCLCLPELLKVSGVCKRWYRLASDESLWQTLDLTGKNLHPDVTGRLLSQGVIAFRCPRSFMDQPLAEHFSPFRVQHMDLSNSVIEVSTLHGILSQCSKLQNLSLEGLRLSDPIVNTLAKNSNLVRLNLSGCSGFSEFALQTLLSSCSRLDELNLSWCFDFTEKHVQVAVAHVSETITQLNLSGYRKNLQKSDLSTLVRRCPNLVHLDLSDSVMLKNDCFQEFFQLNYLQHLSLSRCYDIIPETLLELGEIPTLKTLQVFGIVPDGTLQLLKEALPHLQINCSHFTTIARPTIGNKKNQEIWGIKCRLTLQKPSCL

effect of a mutation on the interaction	Variant
with no effect	MSRVPSPPPPAEMSSGPVAESWCYTQIKVVKFSYMWTINNFSFCREEMGEVIKSSTFSSGANDKLKWCLRVNPKGLDEESKDYLSLYLLLVSCPKSEVRAKCKFSILNAKGEETKAMESQRAYRFVQGKDWGFKKFIRRDFLLDEANGLLPDDKLTLFCEVSVVQDSVNISGQNTMNMVKVPECRLADELGGLWENSRFTDCCLCVAGQEFQAHKAILAARSPVFSAMFEHEMEESKKNRVEINDVEPEVFKEMMCFIYTGKAPNLDKMADDLLAAADKYALERLKVMCEDALCSNLSVENAAEILILADLHSADQLKTQAVDFINYHASDVLETSGWKSMVVSHPHLVAEAYRSLASAQCPFLGPPRKRLKQS [F102C]

Variants of: B1
Details: with smad1_human SMAD1, Q15797
Chain of smad1_human SMAD1, Q15797 (Q15797 whole entry): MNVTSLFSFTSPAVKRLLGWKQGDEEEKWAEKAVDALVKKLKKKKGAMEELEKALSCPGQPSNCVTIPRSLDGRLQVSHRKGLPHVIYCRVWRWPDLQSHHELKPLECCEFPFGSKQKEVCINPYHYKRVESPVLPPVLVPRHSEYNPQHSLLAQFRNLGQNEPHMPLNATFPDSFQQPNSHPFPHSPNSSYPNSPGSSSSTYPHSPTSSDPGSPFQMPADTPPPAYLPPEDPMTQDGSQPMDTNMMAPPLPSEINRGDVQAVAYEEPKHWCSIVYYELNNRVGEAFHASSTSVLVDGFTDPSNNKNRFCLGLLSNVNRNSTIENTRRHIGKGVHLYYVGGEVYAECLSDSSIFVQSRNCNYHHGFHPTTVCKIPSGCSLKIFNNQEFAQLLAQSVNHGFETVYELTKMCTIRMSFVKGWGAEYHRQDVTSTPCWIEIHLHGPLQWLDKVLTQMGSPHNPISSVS

effect of a mutation on the interaction	Variant
with no effect	MSRVPSPPPPAEMSSGPVAESWCYTQIKVVKFSYMWTINNFSFCREEMGEVIKSSTFSSGANDKLKWCLRVNPKGLDEESKDYLSLYLLLVSCPKSEVRAKCKFSILNAKGEETKAMESQRAYRFVQGKDWGFKKFIRRDFLLDEANGLLPDDKLTLFCEVSVVQDSVNISGQNTMNMVKVPECRLADELGGLWENSRFTDCCLCVAGQEFQAHKAILAARSPVFSAMFEHEMEESKKNRVEINDVEPEVFKEMMCFIYTGKAPNLDKMADDLLAAADKYALERLKVMCEDALCSNLSVENAAEILILADLHSADQLKTQAVDFINYHASDVLETSGWKSMVVSHPHLVAEAYRSLASAQCPFLGPPRKRLKQS [F102C]

Variants of: B1
Details: with smca4_human SMARCA4, P51532
Chain of smca4_human SMARCA4, P51532 (P51532 whole entry): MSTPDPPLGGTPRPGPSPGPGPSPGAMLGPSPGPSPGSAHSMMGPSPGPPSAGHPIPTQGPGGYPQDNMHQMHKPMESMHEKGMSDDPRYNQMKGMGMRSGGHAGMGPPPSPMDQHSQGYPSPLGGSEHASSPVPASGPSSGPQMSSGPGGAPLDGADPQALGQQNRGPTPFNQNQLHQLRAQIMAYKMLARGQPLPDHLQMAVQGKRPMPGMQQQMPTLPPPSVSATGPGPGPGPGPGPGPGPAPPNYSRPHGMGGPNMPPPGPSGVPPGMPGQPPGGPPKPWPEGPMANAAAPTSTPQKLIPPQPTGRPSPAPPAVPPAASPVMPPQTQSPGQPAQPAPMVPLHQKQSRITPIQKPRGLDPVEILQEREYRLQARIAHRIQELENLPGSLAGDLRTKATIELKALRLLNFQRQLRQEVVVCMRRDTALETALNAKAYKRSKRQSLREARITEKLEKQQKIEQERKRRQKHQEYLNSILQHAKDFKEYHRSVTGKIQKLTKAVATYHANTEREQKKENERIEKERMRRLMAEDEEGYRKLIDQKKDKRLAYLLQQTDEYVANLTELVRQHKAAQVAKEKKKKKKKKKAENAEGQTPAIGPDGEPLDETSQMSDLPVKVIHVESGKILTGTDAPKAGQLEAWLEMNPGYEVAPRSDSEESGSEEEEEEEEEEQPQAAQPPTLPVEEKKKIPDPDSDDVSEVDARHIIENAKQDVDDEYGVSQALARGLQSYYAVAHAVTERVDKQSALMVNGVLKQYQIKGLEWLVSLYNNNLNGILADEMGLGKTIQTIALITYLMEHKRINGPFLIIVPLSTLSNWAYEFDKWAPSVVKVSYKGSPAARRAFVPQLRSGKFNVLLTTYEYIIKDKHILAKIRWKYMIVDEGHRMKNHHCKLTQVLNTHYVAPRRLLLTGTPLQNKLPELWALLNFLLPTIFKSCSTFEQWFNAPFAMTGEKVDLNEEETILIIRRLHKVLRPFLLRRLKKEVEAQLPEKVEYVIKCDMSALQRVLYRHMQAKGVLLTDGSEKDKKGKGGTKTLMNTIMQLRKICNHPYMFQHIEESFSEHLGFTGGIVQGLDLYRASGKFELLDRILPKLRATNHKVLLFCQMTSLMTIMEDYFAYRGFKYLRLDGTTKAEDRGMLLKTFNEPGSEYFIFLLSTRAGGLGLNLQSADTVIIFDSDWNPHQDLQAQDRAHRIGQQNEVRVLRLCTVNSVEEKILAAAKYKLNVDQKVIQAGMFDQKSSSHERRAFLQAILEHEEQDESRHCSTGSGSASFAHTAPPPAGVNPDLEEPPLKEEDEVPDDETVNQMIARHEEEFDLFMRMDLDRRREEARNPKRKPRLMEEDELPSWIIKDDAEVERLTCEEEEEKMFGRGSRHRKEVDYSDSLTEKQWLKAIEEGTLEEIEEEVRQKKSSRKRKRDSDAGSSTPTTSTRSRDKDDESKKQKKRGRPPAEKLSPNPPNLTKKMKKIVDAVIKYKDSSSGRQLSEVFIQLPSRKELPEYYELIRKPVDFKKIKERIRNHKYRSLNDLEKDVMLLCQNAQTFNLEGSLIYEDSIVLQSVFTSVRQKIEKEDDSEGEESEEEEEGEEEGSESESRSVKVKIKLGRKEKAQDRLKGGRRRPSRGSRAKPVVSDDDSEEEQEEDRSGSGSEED

effect of a mutation on the interaction	Variant
with no effect	MSRVPSPPPPAEMSSGPVAESWCYTQIKVVKFSYMWTINNFSFCREEMGEVIKSSTFSSGANDKLKWCLRVNPKGLDEESKDYLSLYLLLVSCPKSEVRAKCKFSILNAKGEETKAMESQRAYRFVQGKDWGFKKFIRRDFLLDEANGLLPDDKLTLFCEVSVVQDSVNISGQNTMNMVKVPECRLADELGGLWENSRFTDCCLCVAGQEFQAHKAILAARSPVFSAMFEHEMEESKKNRVEINDVEPEVFKEMMCFIYTGKAPNLDKMADDLLAAADKYALERLKVMCEDALCSNLSVENAAEILILADLHSADQLKTQAVDFINYHASDVLETSGWKSMVVSHPHLVAEAYRSLASAQCPFLGPPRKRLKQS [F102C]

Variants of: B1
Details: with snf5_human SMARCB1, Q12824
Chain of snf5_human SMARCB1, Q12824 (Q12824 whole entry): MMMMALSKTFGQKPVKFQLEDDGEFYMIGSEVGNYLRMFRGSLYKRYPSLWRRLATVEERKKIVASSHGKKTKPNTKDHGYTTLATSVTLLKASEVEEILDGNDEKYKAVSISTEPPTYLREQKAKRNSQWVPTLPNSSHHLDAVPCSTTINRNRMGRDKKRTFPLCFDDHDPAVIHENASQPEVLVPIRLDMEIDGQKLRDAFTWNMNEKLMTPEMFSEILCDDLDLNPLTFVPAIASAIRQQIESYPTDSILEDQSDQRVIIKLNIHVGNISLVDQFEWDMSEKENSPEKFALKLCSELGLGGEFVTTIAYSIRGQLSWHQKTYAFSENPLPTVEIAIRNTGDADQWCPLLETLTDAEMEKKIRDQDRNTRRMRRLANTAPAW

effect of a mutation on the interaction	Variant
with no effect	MSRVPSPPPPAEMSSGPVAESWCYTQIKVVKFSYMWTINNFSFCREEMGEVIKSSTFSSGANDKLKWCLRVNPKGLDEESKDYLSLYLLLVSCPKSEVRAKCKFSILNAKGEETKAMESQRAYRFVQGKDWGFKKFIRRDFLLDEANGLLPDDKLTLFCEVSVVQDSVNISGQNTMNMVKVPECRLADELGGLWENSRFTDCCLCVAGQEFQAHKAILAARSPVFSAMFEHEMEESKKNRVEINDVEPEVFKEMMCFIYTGKAPNLDKMADDLLAAADKYALERLKVMCEDALCSNLSVENAAEILILADLHSADQLKTQAVDFINYHASDVLETSGWKSMVVSHPHLVAEAYRSLASAQCPFLGPPRKRLKQS [F102C]

Variants of: B1
Details: with smo_human SMO

effect of a mutation on the interaction	Variant
with no effect	MSRVPSPPPPAEMSSGPVAESWCYTQIKVVKFSYMWTINNFSFCREEMGEVIKSSTFSSGANDKLKWCLRVNPKGLDEESKDYLSLYLLLVSCPKSEVRAKCKFSILNAKGEETKAMESQRAYRFVQGKDWGFKKFIRRDFLLDEANGLLPDDKLTLFCEVSVVQDSVNISGQNTMNMVKVPECRLADELGGLWENSRFTDCCLCVAGQEFQAHKAILAARSPVFSAMFEHEMEESKKNRVEINDVEPEVFKEMMCFIYTGKAPNLDKMADDLLAAADKYALERLKVMCEDALCSNLSVENAAEILILADLHSADQLKTQAVDFINYHASDVLETSGWKSMVVSHPHLVAEAYRSLASAQCPFLGPPRKRLKQS [F102C]

Variants of: B1
Details: with socs1_human SOCS1, O15524
Chain of socs1_human SOCS1, O15524 (O15524 whole entry): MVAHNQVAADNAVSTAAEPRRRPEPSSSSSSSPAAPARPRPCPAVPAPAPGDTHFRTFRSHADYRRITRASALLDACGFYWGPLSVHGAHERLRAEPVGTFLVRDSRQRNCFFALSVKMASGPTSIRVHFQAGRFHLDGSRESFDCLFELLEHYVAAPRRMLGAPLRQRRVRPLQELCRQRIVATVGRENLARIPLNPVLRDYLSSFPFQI

effect of a mutation on the interaction	Variant
with no effect	MSRVPSPPPPAEMSSGPVAESWCYTQIKVVKFSYMWTINNFSFCREEMGEVIKSSTFSSGANDKLKWCLRVNPKGLDEESKDYLSLYLLLVSCPKSEVRAKCKFSILNAKGEETKAMESQRAYRFVQGKDWGFKKFIRRDFLLDEANGLLPDDKLTLFCEVSVVQDSVNISGQNTMNMVKVPECRLADELGGLWENSRFTDCCLCVAGQEFQAHKAILAARSPVFSAMFEHEMEESKKNRVEINDVEPEVFKEMMCFIYTGKAPNLDKMADDLLAAADKYALERLKVMCEDALCSNLSVENAAEILILADLHSADQLKTQAVDFINYHASDVLETSGWKSMVVSHPHLVAEAYRSLASAQCPFLGPPRKRLKQS [F102C]

Variants of: B1
Details: with sox10_human SOX10, P56693
Chain of sox10_human SOX10, P56693 (P56693 whole entry): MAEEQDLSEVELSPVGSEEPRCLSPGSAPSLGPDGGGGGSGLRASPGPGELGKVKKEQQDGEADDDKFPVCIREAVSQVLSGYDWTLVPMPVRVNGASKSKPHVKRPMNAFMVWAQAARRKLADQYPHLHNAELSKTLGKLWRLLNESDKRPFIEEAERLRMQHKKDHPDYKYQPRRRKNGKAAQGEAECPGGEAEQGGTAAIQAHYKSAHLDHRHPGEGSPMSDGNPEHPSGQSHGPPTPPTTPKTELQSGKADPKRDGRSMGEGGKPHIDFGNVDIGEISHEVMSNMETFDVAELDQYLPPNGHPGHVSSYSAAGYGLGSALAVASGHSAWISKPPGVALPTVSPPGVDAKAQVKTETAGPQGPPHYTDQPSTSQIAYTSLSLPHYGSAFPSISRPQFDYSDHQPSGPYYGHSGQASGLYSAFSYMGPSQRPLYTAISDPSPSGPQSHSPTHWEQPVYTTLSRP

effect of a mutation on the interaction	Variant
with no effect	MSRVPSPPPPAEMSSGPVAESWCYTQIKVVKFSYMWTINNFSFCREEMGEVIKSSTFSSGANDKLKWCLRVNPKGLDEESKDYLSLYLLLVSCPKSEVRAKCKFSILNAKGEETKAMESQRAYRFVQGKDWGFKKFIRRDFLLDEANGLLPDDKLTLFCEVSVVQDSVNISGQNTMNMVKVPECRLADELGGLWENSRFTDCCLCVAGQEFQAHKAILAARSPVFSAMFEHEMEESKKNRVEINDVEPEVFKEMMCFIYTGKAPNLDKMADDLLAAADKYALERLKVMCEDALCSNLSVENAAEILILADLHSADQLKTQAVDFINYHASDVLETSGWKSMVVSHPHLVAEAYRSLASAQCPFLGPPRKRLKQS [F102C]

Variants of: B1
Details: with sox2_human SOX2, P48431
Chain of sox2_human SOX2, P48431 (P48431 whole entry): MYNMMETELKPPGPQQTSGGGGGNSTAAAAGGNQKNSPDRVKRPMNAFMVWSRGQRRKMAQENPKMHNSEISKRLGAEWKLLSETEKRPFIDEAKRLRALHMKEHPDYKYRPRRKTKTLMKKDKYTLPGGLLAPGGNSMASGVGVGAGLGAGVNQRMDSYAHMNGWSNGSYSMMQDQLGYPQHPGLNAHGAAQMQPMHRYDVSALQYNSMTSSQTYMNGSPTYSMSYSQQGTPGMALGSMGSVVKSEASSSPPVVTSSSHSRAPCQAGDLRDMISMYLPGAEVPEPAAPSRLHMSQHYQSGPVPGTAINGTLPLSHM

effect of a mutation on the interaction	Variant
with no effect	MSRVPSPPPPAEMSSGPVAESWCYTQIKVVKFSYMWTINNFSFCREEMGEVIKSSTFSSGANDKLKWCLRVNPKGLDEESKDYLSLYLLLVSCPKSEVRAKCKFSILNAKGEETKAMESQRAYRFVQGKDWGFKKFIRRDFLLDEANGLLPDDKLTLFCEVSVVQDSVNISGQNTMNMVKVPECRLADELGGLWENSRFTDCCLCVAGQEFQAHKAILAARSPVFSAMFEHEMEESKKNRVEINDVEPEVFKEMMCFIYTGKAPNLDKMADDLLAAADKYALERLKVMCEDALCSNLSVENAAEILILADLHSADQLKTQAVDFINYHASDVLETSGWKSMVVSHPHLVAEAYRSLASAQCPFLGPPRKRLKQS [F102C]

Variants of: B1
Details: with src_human SRC

effect of a mutation on the interaction	Variant
with no effect	MSRVPSPPPPAEMSSGPVAESWCYTQIKVVKFSYMWTINNFSFCREEMGEVIKSSTFSSGANDKLKWCLRVNPKGLDEESKDYLSLYLLLVSCPKSEVRAKCKFSILNAKGEETKAMESQRAYRFVQGKDWGFKKFIRRDFLLDEANGLLPDDKLTLFCEVSVVQDSVNISGQNTMNMVKVPECRLADELGGLWENSRFTDCCLCVAGQEFQAHKAILAARSPVFSAMFEHEMEESKKNRVEINDVEPEVFKEMMCFIYTGKAPNLDKMADDLLAAADKYALERLKVMCEDALCSNLSVENAAEILILADLHSADQLKTQAVDFINYHASDVLETSGWKSMVVSHPHLVAEAYRSLASAQCPFLGPPRKRLKQS [F102C]

Variants of: B1
Details: with whr1_human WHR1, P49842
Chain of whr1_human WHR1, P49842 (P49842 whole entry): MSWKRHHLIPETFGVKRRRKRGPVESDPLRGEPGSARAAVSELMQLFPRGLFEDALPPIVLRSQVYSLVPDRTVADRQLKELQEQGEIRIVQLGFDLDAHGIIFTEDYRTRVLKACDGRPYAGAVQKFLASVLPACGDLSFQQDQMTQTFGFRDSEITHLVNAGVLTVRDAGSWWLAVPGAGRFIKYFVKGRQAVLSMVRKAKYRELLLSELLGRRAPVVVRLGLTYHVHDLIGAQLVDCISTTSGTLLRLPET

effect of a mutation on the interaction	Variant
with no effect	MSRVPSPPPPAEMSSGPVAESWCYTQIKVVKFSYMWTINNFSFCREEMGEVIKSSTFSSGANDKLKWCLRVNPKGLDEESKDYLSLYLLLVSCPKSEVRAKCKFSILNAKGEETKAMESQRAYRFVQGKDWGFKKFIRRDFLLDEANGLLPDDKLTLFCEVSVVQDSVNISGQNTMNMVKVPECRLADELGGLWENSRFTDCCLCVAGQEFQAHKAILAARSPVFSAMFEHEMEESKKNRVEINDVEPEVFKEMMCFIYTGKAPNLDKMADDLLAAADKYALERLKVMCEDALCSNLSVENAAEILILADLHSADQLKTQAVDFINYHASDVLETSGWKSMVVSHPHLVAEAYRSLASAQCPFLGPPRKRLKQS [F102C]

Variants of: B1
Details: with stk38_human STK38, Q15208
Chain of stk38_human STK38, Q15208 (Q15208 whole entry, looked up): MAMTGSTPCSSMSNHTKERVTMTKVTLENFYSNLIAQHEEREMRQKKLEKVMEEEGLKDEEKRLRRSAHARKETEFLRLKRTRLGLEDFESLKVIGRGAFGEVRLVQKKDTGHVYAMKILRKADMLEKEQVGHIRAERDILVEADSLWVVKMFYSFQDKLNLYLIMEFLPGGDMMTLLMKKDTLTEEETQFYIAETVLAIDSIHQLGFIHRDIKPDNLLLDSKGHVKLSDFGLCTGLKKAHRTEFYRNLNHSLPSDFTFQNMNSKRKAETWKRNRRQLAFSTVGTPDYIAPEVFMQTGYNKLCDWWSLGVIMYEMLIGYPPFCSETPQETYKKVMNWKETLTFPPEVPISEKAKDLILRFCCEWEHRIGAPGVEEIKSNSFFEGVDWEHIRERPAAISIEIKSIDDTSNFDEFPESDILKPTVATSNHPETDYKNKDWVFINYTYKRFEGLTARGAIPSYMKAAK

effect of a mutation on the interaction	Variant
with no effect	MSRVPSPPPPAEMSSGPVAESWCYTQIKVVKFSYMWTINNFSFCREEMGEVIKSSTFSSGANDKLKWCLRVNPKGLDEESKDYLSLYLLLVSCPKSEVRAKCKFSILNAKGEETKAMESQRAYRFVQGKDWGFKKFIRRDFLLDEANGLLPDDKLTLFCEVSVVQDSVNISGQNTMNMVKVPECRLADELGGLWENSRFTDCCLCVAGQEFQAHKAILAARSPVFSAMFEHEMEESKKNRVEINDVEPEVFKEMMCFIYTGKAPNLDKMADDLLAAADKYALERLKVMCEDALCSNLSVENAAEILILADLHSADQLKTQAVDFINYHASDVLETSGWKSMVVSHPHLVAEAYRSLASAQCPFLGPPRKRLKQS [F102C]

Variants of: B1
Details: with eloc_human ELOC

effect of a mutation on the interaction	Variant
with no effect	MSRVPSPPPPAEMSSGPVAESWCYTQIKVVKFSYMWTINNFSFCREEMGEVIKSSTFSSGANDKLKWCLRVNPKGLDEESKDYLSLYLLLVSCPKSEVRAKCKFSILNAKGEETKAMESQRAYRFVQGKDWGFKKFIRRDFLLDEANGLLPDDKLTLFCEVSVVQDSVNISGQNTMNMVKVPECRLADELGGLWENSRFTDCCLCVAGQEFQAHKAILAARSPVFSAMFEHEMEESKKNRVEINDVEPEVFKEMMCFIYTGKAPNLDKMADDLLAAADKYALERLKVMCEDALCSNLSVENAAEILILADLHSADQLKTQAVDFINYHASDVLETSGWKSMVVSHPHLVAEAYRSLASAQCPFLGPPRKRLKQS [F102C]
